# In doi:10.1101/2022.01.04.474899 (bioRxiv, 2022):
# Biological target: the molecule itself
# Assay: SDS-PAGE immunoblot
protein,measurement,value
"recombinant human asprosin with C-terminal 2×Strep-tag II (natural protein, UniProt P35555 2732-2871, looked up) STNETDASNIEDQSETEANVSLASWDVEKTAIFAFNISHVSNKVRILELLPALTTLTNHNRYLIESGNEDGFFKINQKEGISYLHFTKKKPVAGTYSLQISSTPLYKKKELNQLEDKYDKDYLSGELGDNLKMKIQVLLH",stoichiometry N,4
